Reference: publication PMC11303214

Assays:
Test in all cases: SEC; Superdex200 column, PBS buffer pH 7.4, after nickel affinity chromatography
[1] = target: SsA1 (R-1b variant with the V157C-N183C disulfide) (respiratory syncytial virus (RSV) | bacteriophage T4) (UniProt P03420)
[2] = target: SsA2 (R-1b variant with the A55C-L188C disulfide) (respiratory syncytial virus (RSV) | bacteriophage T4) (UniProt P03420)
[3] = target: SsB1 (R-1b variant with the S443C-S466C disulfide) (respiratory syncytial virus (RSV) | bacteriophage T4) (UniProt P03420)

“SsA1 (R-1b variant with the V157C-N183C disulfide) (from UniProt P03420 26-105; P03420 137-513)” showed a stoichiometry N [1] of 3.
“SsA2 (R-1b variant with the A55C-L188C disulfide) (from UniProt P03420 26-105; P03420 137-513)” showed a stoichiometry N [2] of 3.
For “SsB1 (R-1b variant with the S443C-S466C disulfide) (from UniProt P03420 26-105; P03420 137-513)”, the stoichiometry N [3] was 3.
